Source: US20130071379A1

B1: 1B20 variant H3 (antibody, part only; not given: light chain, probably the common parent VL, V domains shown, part only)
VH: QVQLVQSGAEVKKPGESLKISCKGSGYSFTNYYITWVRQMPGKGLEWMGMIYPGDSYTHYSQRFQGQVTISADKSISTAYLQWSSLKASDTAIYYCARDHWSRPLFDVWGQGTLVTVSS
B2: 1B20 variant G7 (antibody, part only; not given: light chain, probably the common parent VL, V domains shown, part only)
VH: QVQLVQSGAEVKKPGESLKISCKGSGYSFTDYYISWVRQMPGKGLEWMGWIYPGDSYTHYSPSFQGQVTISADKSISTAYLQWSSLKASDTAMYYCARDHWSKPYFDVWGQGTLVTVSS
B3: 1B20 variant E3 (antibody, part only; not given: light chain, V domains shown, part only)
VH: QVQLVQSGAEVKKPGESLKISCKGSGYSFTDYYISWVRQMPGKGLEWMGMIYPGDSYTSYSPRFQGQVTISADKSISTAYLQWSSLKASDTAMYYCARDYWYRPFSDIWGQGTLVTVSS
B4: 1B20 variant B8 (antibody, part only; not given: light chain, V domains shown, part only)
VH: QVQLVQSGAEVKKPGESLKISCKGSGYSFTNYYISWVRQMPGKGLEWMGMIYPGDSYTHYSPNFQGQVTISADKSISTAYLQWSSLKASDTAMYYCARDYWSKPYFDVWGQGTLVTVSS
B5: 1B20 variant A9 (antibody, part only; not given: light chain, probably the common parent VL, V domains shown, part only)
VH: QVQLVQSGAEVKKPGESLKISCKGSGYSFTNYYISWVRQMPGKGLEWMGMIYPGDSYTRYSPKFQGQVTISADKSISTAYLQWSSLKASDTAMYYCARDHWYRPYSDIWGQGTLVTVSS
B6: 1B20 variant F5 (antibody, part only; not given: light chain, probably the common parent VL, V domains shown, part only)
VH: QVQLVQSGAEVKKPGESLKISCKGSGYSFTDYYITWVRQMPGKGLEWMGMIYPGDSYTNYRHNFQGQVTISADKSISTAYLQWSSLKASDTAMYYCARDYWSRPYFDIWGQGTLVTVSS
B7: 1B20 variant G6 (antibody, part only; not given: light chain, probably the common parent VL, V domains shown, part only)
VH: QVQLVQSGAEVKKPGESLKISCKGSGYSFTDYYINWVRQMPGKGLEWMGMIYPGDSYTNYNPKFQGQVTISADKSISTAYLQWSSLKASDTAIYYCARDHWSRPFSDVWGQGTLVTVSS
B8: 1B20 variant C8 (antibody, part only; not given: light chain, V domains shown, part only)
VH: QVQLVQSGAEVKKPGESLKISCKGSGYSFTNYYIAWVRQMPGKGLEWMGMIYPGDSYTSYSHRFQGQVTISADKSISTAYLQWSSLKASDTAMYYCARDHWYRPYFDIWGQGTLVTVSS
B9: 1B20 variant A3 (antibody, part only; not given: light chain, V domains shown, part only)
VH: QVQLVQSGAEVKKPGESLKISCKGSGYSFTDYYISWVRQMPGKGLEWMGMIYPGDSYTRYSPNFQGQVTISADKSISTAYLQWSSLKASDTAMYYCARDHWYRPLSDIWGQGTLVTVSS
B10: 1B20 variant E4 (antibody, part only; not given: light chain, probably the common parent VL, V domains shown, part only)
VH: QVQLVQSGAEVKKPGESLKISCKGSGYSFTNYYISWVRQMPGKGLEWMGWIYPGDSYTSYNQKFQGQVTISADKSISTAYLQWSSLKASDTAMYYCARDYWSKPYSDVWGQGTLVTVSS
B11: 1B20 variant C6 (antibody, part only; not given: light chain, V domains shown, part only)
VH: QVQLVQSGAEVKKPGESLKISCKGSGYSFTNYYITWVRQMPGKGLEWMGMIYPGDSYTHYNPSFQGQVTISADKSISTAYLQWSSLKASDTAMYYCARDHWYKPLFDIWGQGTLVTVSS
B12: 1B20 variant C7 (antibody, part only; not given: light chain, probably the common parent VL, V domains shown, part only)
VH: QVQLVQSGAEVKKPGESLKISCKGSGYSFTDYYISWVRQMPGKGLEWMGWIYPGDSYTHYSHNFQGQVTISADKSISTAYLQWSSLKASDTAMYYCARDHWSRPFSDVWGQGTLVTVSS
B13: 1B20 variant E5 (antibody, part only; not given: light chain, probably the common parent VL, V domains shown, part only)
VH: QVQLVQSGAEVKKPGESLKISCKGSGYSFTDYYISWVRQMPGKGLEWMGWIYPGDSYTHYNPNFQGQVTISADKSISTAYLQWSSLKASDTAMYYCARDRWSTPYFDVWGQGTLVTVSS
B14: 1B20 variant D3 (antibody, part only; not given: light chain, V domains shown, part only)
VH: QVQLVQSGAEVKKPGESLKISCKGSGYSFTDYYITWVRQMPGKGLEWMGMIYPGDSYTRYSPKFQGQVTISADKSISTAYLQWSSLKASDTAMYYCARDYWSKPFFDVWGQGTLVTVSS
B15: 1B20 variant A5 (antibody, part only; not given: light chain, probably the common parent VL, V domains shown, part only)
VH: QVQLVQSGAEVKKPGESLKISCKGSGYSFTDYYISWVRQMPGKGLEWMGWIYPGDSYTHYNPMFQGQVTISADKSISTAYLQWSSLKASDTAMYYCARDRWSRPYFDIWGQGTLVTVSS
B16: 1B20 variant H7 (antibody, part only; not given: light chain, probably the common parent VL, V domains shown, part only)
VH: QVQLVQSGAEVKKPGESLKISCKGSGYSFTDYYISWVRQMPGKGPEWMGMIYPGDSYTRYSQKFQGQVTISADKSISTAYLQWSSLKASDTAIYYCARDHWSRPLSDIWGQGTLVTVSS
B17: 1B20 variant D8 (antibody, part only; not given: light chain, V domains shown, part only)
VH: QVQLVQSGAEVKKPGESLKISCKGSGYSFTDYYISWVRQMPGKGLEWMGMIYPGDSYTHYSQSFQGQVTISADKSISTAYLQWSSLKASDTAMYYCARDHWYRPLFDIWGQGTLVTVSS

Biological target: PCSK9
Test: Biacore SPR

Binder	Kd [nM]
B1	1.89
B2	2.05
B3	2.62
B4	4.47
B5	1.95
B6	2.41
B7	2.2
B8	3.73
B9	7.93
B10	2.38
B11	2.1
B12	2.53
B13	4.22
B14	2.68
B15	6.81
B16	4.9
B17	3.21
